Holding throughout (test): cell-based or functional assay
In assay [1] the target is human glucagon receptor (hGCGR) (human, UniProt P47871 26-477).
The target of assay [2] is human GLP-1 receptor (hGLP-1R) (human, UniProt P43220 24-463).
The target of another assay is human glucagon receptor (human, UniProt P47871 26-477).

Starred links: 1 amine or outer side, 2 acyl side, 3 side chain; linkers in the order of their positions; H or OH if unused. Non-standard residues stand in square brackets, D forms with d. Groups on a side chain read outwards from the residue. No end group written: not given here. *: point of attachment. C20 diacid = O=C(O)CCCCCCCCCCCCCCCCCCC(=O)*; C18 diacid = O=C(O)CCCCCCCCCCCCCCCCC(=O)*; γGlu = O=C(O)[C@H](CCC(=O)[*:2])N[*:1]; αMeF = C[C@](N)(Cc1ccccc1)C(=O)O; AEEA = NCCOCCOCC(=O)O; Aib = CC(C)(N)C(=O)O

human glucagon receptor (hGCGR), sequence (P47871 26-477): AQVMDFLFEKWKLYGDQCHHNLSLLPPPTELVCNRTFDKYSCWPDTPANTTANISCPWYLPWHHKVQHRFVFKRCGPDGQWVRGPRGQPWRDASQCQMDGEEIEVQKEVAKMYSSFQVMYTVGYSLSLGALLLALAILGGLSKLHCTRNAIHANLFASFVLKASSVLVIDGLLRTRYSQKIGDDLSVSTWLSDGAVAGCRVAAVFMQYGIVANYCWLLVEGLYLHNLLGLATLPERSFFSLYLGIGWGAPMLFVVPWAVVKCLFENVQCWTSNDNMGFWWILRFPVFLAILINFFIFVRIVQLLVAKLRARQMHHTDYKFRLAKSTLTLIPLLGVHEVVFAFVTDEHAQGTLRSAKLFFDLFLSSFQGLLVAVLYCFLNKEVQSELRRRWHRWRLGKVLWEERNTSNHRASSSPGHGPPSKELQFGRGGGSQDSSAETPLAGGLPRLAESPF
human glucagon receptor, sequence (P47871 26-477): as above

B1: Peptide 148 (peptide)
peptide: H[Aib]QGTFTSDVSK[αMeF]LDSK([AEEA-AEEA-γGlu-C18 diacid])RAQDFVRWIAE[Aib]G-OH
modifications: N-terminus assumed
SMILES: CC[C@H](C)[C@H](NC(=O)[C@H](Cc1c[nH]c2ccccc12)NC(=O)[C@H](CCCNC(=N)N)NC(=O)[C@@H](NC(=O)[C@H](Cc1ccccc1)NC(=O)[C@H](CC(=O)O)NC(=O)[C@H](CCC(N)=O)NC(=O)[C@H](C)NC(=O)[C@H](CCCNC(=N)N)NC(=O)[C@H](CCCCNC(=O)COCCOCCNC(=O)COCCOCCNC(=O)CC[C@H](NC(=O)CCCCCCCCCCCCCCCCC(=O)O)C(=O)O)NC(=O)[C@H](CO)NC(=O)[C@H](CC(=O)O)NC(=O)[C@H](CC(C)C)NC(=O)[C@](C)(Cc1ccccc1)NC(=O)[C@H](CCCCN)NC(=O)[C@H](CO)NC(=O)[C@@H](NC(=O)[C@H](CC(=O)O)NC(=O)[C@H](CO)NC(=O)[C@@H](NC(=O)[C@H](Cc1ccccc1)NC(=O)[C@@H](NC(=O)CNC(=O)[C@H](CCC(N)=O)NC(=O)C(C)(C)NC(=O)[C@@H](N)Cc1c[nH]cn1)[C@@H](C)O)[C@@H](C)O)C(C)C)C(C)C)C(=O)N[C@@H](C)C(=O)N[C@@H](CCC(=O)O)C(=O)NC(C)(C)C(=O)NCC(=O)O
With B1, the “hGluc-R EC50 (pM)” value in assay [1] was 568 pM. The “hGLP-1R EC50 (pM)” value in assay [2] turned out to be 40.2 pM.

B2: Peptide 144 (peptide)
peptide: H[Aib]QGTFTSDVSK[αMeF]LDSK([γGlu-γGlu-AEEA-AEEA-γGlu-γGlu-C18 diacid])RARDFVRWLLE[Aib]G-OH
modifications: N-terminus assumed
SMILES: CC(C)C[C@H](NC(=O)[C@H](Cc1c[nH]c2ccccc12)NC(=O)[C@H](CCCNC(=N)N)NC(=O)[C@@H](NC(=O)[C@H](Cc1ccccc1)NC(=O)[C@H](CC(=O)O)NC(=O)[C@H](CCCNC(=N)N)NC(=O)[C@H](C)NC(=O)[C@H](CCCNC(=N)N)NC(=O)[C@H](CCCCNC(=O)CC[C@H](NC(=O)CC[C@H](NC(=O)COCCOCCNC(=O)COCCOCCNC(=O)CC[C@H](NC(=O)CC[C@H](NC(=O)CCCCCCCCCCCCCCCCC(=O)O)C(=O)O)C(=O)O)C(=O)O)C(=O)O)NC(=O)[C@H](CO)NC(=O)[C@H](CC(=O)O)NC(=O)[C@H](CC(C)C)NC(=O)[C@](C)(Cc1ccccc1)NC(=O)[C@H](CCCCN)NC(=O)[C@H](CO)NC(=O)[C@@H](NC(=O)[C@H](CC(=O)O)NC(=O)[C@H](CO)NC(=O)[C@@H](NC(=O)[C@H](Cc1ccccc1)NC(=O)[C@@H](NC(=O)CNC(=O)[C@H](CCC(N)=O)NC(=O)C(C)(C)NC(=O)[C@@H](N)Cc1c[nH]cn1)[C@@H](C)O)[C@@H](C)O)C(C)C)C(C)C)C(=O)N[C@@H](CC(C)C)C(=O)N[C@@H](CCC(=O)O)C(=O)NC(C)(C)C(=O)NCC(=O)O
B2: the “hGluc-R EC50 (pM)” value in assay [1] came to 702 pM. Moreover, in assay [2], the “hGLP-1R EC50 (pM)” value stood at 45.2 pM.

B3: Peptide 233 (peptide)
peptide: H[Aib]HGS[αMeF]TSDVSK[αMeF]LDSRAAK([AEEA-AEEA-γGlu-γGlu-C20 diacid])D[αMeF]VQ[Aib]IANTGG-NH2
modifications: N-terminus assumed
SMILES: CC[C@H](C)[C@H](NC(=O)C(C)(C)NC(=O)[C@H](CCC(N)=O)NC(=O)[C@@H](NC(=O)[C@](C)(Cc1ccccc1)NC(=O)[C@H](CC(=O)O)NC(=O)[C@H](CCCCNC(=O)COCCOCCNC(=O)COCCOCCNC(=O)CC[C@H](NC(=O)CC[C@H](NC(=O)CCCCCCCCCCCCCCCCCCC(=O)O)C(=O)O)C(=O)O)NC(=O)[C@H](C)NC(=O)[C@H](C)NC(=O)[C@H](CCCNC(=N)N)NC(=O)[C@H](CO)NC(=O)[C@H](CC(=O)O)NC(=O)[C@H](CC(C)C)NC(=O)[C@](C)(Cc1ccccc1)NC(=O)[C@H](CCCCN)NC(=O)[C@H](CO)NC(=O)[C@@H](NC(=O)[C@H](CC(=O)O)NC(=O)[C@H](CO)NC(=O)[C@@H](NC(=O)[C@](C)(Cc1ccccc1)NC(=O)[C@H](CO)NC(=O)CNC(=O)[C@H](Cc1c[nH]cn1)NC(=O)C(C)(C)NC(=O)[C@@H](N)Cc1c[nH]cn1)[C@@H](C)O)C(C)C)C(C)C)C(=O)N[C@@H](C)C(=O)N[C@@H](CC(N)=O)C(=O)N[C@H](C(=O)NCC(=O)NCC(N)=O)[C@@H](C)O
As for B3, the “hGluc-R EC50 (pM), cAMP” value with human glucagon receptor amounted to 407 pM.

B4: Peptide 146 (peptide)
peptide: H[Aib]QGTFTSDVSK[αMeF]LDSK([AEEA-AEEA-γGlu-C18 diacid])RAQDFVRWLASR-OH
modifications: N-terminus assumed
SMILES: CC(C)C[C@H](NC(=O)[C@H](Cc1c[nH]c2ccccc12)NC(=O)[C@H](CCCNC(=N)N)NC(=O)[C@@H](NC(=O)[C@H](Cc1ccccc1)NC(=O)[C@H](CC(=O)O)NC(=O)[C@H](CCC(N)=O)NC(=O)[C@H](C)NC(=O)[C@H](CCCNC(=N)N)NC(=O)[C@H](CCCCNC(=O)COCCOCCNC(=O)COCCOCCNC(=O)CC[C@H](NC(=O)CCCCCCCCCCCCCCCCC(=O)O)C(=O)O)NC(=O)[C@H](CO)NC(=O)[C@H](CC(=O)O)NC(=O)[C@H](CC(C)C)NC(=O)[C@](C)(Cc1ccccc1)NC(=O)[C@H](CCCCN)NC(=O)[C@H](CO)NC(=O)[C@@H](NC(=O)[C@H](CC(=O)O)NC(=O)[C@H](CO)NC(=O)[C@@H](NC(=O)[C@H](Cc1ccccc1)NC(=O)[C@@H](NC(=O)CNC(=O)[C@H](CCC(N)=O)NC(=O)C(C)(C)NC(=O)[C@@H](N)Cc1c[nH]cn1)[C@@H](C)O)[C@@H](C)O)C(C)C)C(C)C)C(=O)N[C@@H](C)C(=O)N[C@@H](CO)C(=O)N[C@@H](CCCNC(=N)N)C(=O)O
With B4, the “hGluc-R EC50 (pM)” value in assay [1] came out at 1630 pM. Besides, the “hGLP-1R EC50 (pM)” value in assay [2] was 24.6 pM.

B5: Peptide 149 (peptide)
peptide: H[Aib]QGTFTSDVSK[αMeF]LDSK([AEEA-AEEA-γGlu-C18 diacid])RAQDFVRWVVE[Aib]G-OH
modifications: N-terminus assumed
SMILES: CC(C)C[C@H](NC(=O)[C@](C)(Cc1ccccc1)NC(=O)[C@H](CCCCN)NC(=O)[C@H](CO)NC(=O)[C@@H](NC(=O)[C@H](CC(=O)O)NC(=O)[C@H](CO)NC(=O)[C@@H](NC(=O)[C@H](Cc1ccccc1)NC(=O)[C@@H](NC(=O)CNC(=O)[C@H](CCC(N)=O)NC(=O)C(C)(C)NC(=O)[C@@H](N)Cc1c[nH]cn1)[C@@H](C)O)[C@@H](C)O)C(C)C)C(=O)N[C@@H](CC(=O)O)C(=O)N[C@@H](CO)C(=O)N[C@@H](CCCCNC(=O)COCCOCCNC(=O)COCCOCCNC(=O)CC[C@H](NC(=O)CCCCCCCCCCCCCCCCC(=O)O)C(=O)O)C(=O)N[C@@H](CCCNC(=N)N)C(=O)N[C@@H](C)C(=O)N[C@@H](CCC(N)=O)C(=O)N[C@@H](CC(=O)O)C(=O)N[C@@H](Cc1ccccc1)C(=O)N[C@H](C(=O)N[C@@H](CCCNC(=N)N)C(=O)N[C@@H](Cc1c[nH]c2ccccc12)C(=O)N[C@H](C(=O)N[C@H](C(=O)N[C@@H](CCC(=O)O)C(=O)NC(C)(C)C(=O)NCC(=O)O)C(C)C)C(C)C)C(C)C
For B5, the “hGluc-R EC50 (pM)” value in assay [1] was determined as 2650 pM. Besides, in assay [2], the “hGLP-1R EC50 (pM)” value is 8.71 pM.

B6: Peptide 145 (peptide)
peptide: H[Aib]QGTFTSDVSK[αMeF]LDSK([AEEA-AEEA-γGlu-C18 diacid])RAQDFVRWLASRGI-OH
modifications: N-terminus assumed
SMILES: CC[C@H](C)[C@H](NC(=O)CNC(=O)[C@H](CCCNC(=N)N)NC(=O)[C@H](CO)NC(=O)[C@H](C)NC(=O)[C@H](CC(C)C)NC(=O)[C@H](Cc1c[nH]c2ccccc12)NC(=O)[C@H](CCCNC(=N)N)NC(=O)[C@@H](NC(=O)[C@H](Cc1ccccc1)NC(=O)[C@H](CC(=O)O)NC(=O)[C@H](CCC(N)=O)NC(=O)[C@H](C)NC(=O)[C@H](CCCNC(=N)N)NC(=O)[C@H](CCCCNC(=O)COCCOCCNC(=O)COCCOCCNC(=O)CC[C@H](NC(=O)CCCCCCCCCCCCCCCCC(=O)O)C(=O)O)NC(=O)[C@H](CO)NC(=O)[C@H](CC(=O)O)NC(=O)[C@H](CC(C)C)NC(=O)[C@](C)(Cc1ccccc1)NC(=O)[C@H](CCCCN)NC(=O)[C@H](CO)NC(=O)[C@@H](NC(=O)[C@H](CC(=O)O)NC(=O)[C@H](CO)NC(=O)[C@@H](NC(=O)[C@H](Cc1ccccc1)NC(=O)[C@@H](NC(=O)CNC(=O)[C@H](CCC(N)=O)NC(=O)C(C)(C)NC(=O)[C@@H](N)Cc1c[nH]cn1)[C@@H](C)O)[C@@H](C)O)C(C)C)C(C)C)C(=O)O
In the case of B6, the “hGluc-R EC50 (pM)” value in assay [1] worked out at 4590 pM. Besides, the “hGLP-1R EC50 (pM)” value in assay [2] was found to be 22.6 pM.

B7: Peptide 147 (peptide)
peptide: H[Aib]QGTFTSDVSK[αMeF]LDSK([AEEA-AEEA-γGlu-C18 diacid])RAQDFVRWLEA[Aib]G-OH
modifications: N-terminus assumed
SMILES: CC(C)C[C@H](NC(=O)[C@H](Cc1c[nH]c2ccccc12)NC(=O)[C@H](CCCNC(=N)N)NC(=O)[C@@H](NC(=O)[C@H](Cc1ccccc1)NC(=O)[C@H](CC(=O)O)NC(=O)[C@H](CCC(N)=O)NC(=O)[C@H](C)NC(=O)[C@H](CCCNC(=N)N)NC(=O)[C@H](CCCCNC(=O)COCCOCCNC(=O)COCCOCCNC(=O)CC[C@H](NC(=O)CCCCCCCCCCCCCCCCC(=O)O)C(=O)O)NC(=O)[C@H](CO)NC(=O)[C@H](CC(=O)O)NC(=O)[C@H](CC(C)C)NC(=O)[C@](C)(Cc1ccccc1)NC(=O)[C@H](CCCCN)NC(=O)[C@H](CO)NC(=O)[C@@H](NC(=O)[C@H](CC(=O)O)NC(=O)[C@H](CO)NC(=O)[C@@H](NC(=O)[C@H](Cc1ccccc1)NC(=O)[C@@H](NC(=O)CNC(=O)[C@H](CCC(N)=O)NC(=O)C(C)(C)NC(=O)[C@@H](N)Cc1c[nH]cn1)[C@@H](C)O)[C@@H](C)O)C(C)C)C(C)C)C(=O)N[C@@H](CCC(=O)O)C(=O)N[C@@H](C)C(=O)NC(C)(C)C(=O)NCC(=O)O
In the case of B7, in assay [1], the “hGluc-R EC50 (pM)” value was 43.5 pM. Besides, in assay [2], the “hGLP-1R EC50 (pM)” value is 15.3 pM.
